Assay results taken from paper PMC8205236, “Quantitative Profiling of WNT-3A Binding to All Human Frizzled Paralogues in HEK293 Cells by NanoBiT/BRET Assessments” (ACS Pharmacology & Translational Science, 2021).

T1: HiBiT-tagged human FZD4 (human, UniProt Q9ULV1 37-537)
T1 construct: the receptor's own signal peptide is probably replaced; also called HiBiT-FZD4; WT FZD4; source: HEK293A, transiently transfected, on live cells; not shown: HiBiT, N-terminal, kept
T1 sequence (looked up): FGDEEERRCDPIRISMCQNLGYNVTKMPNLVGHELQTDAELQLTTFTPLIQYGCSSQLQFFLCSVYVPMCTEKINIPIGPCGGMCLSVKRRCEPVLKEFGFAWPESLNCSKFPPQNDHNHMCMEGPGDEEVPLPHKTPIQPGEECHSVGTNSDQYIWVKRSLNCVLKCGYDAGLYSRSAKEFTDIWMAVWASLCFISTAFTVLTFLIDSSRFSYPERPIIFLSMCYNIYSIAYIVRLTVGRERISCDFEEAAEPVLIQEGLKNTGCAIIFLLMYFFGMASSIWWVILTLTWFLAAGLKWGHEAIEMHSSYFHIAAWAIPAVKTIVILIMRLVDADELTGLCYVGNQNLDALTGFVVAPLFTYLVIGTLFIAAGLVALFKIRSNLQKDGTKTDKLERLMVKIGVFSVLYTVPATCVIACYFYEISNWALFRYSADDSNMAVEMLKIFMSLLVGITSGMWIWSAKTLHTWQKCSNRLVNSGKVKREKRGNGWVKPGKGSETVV

B1: untagged human WNT-3A (ligand, UniProt P56704 19-352, looked up)
chain: SYPIWWSLAVGPQYSSLGSQPILCASIPGLVPKQLRFCRNYVEIMPSVAEGIKIGIQECQHQFRGRRWNCTTVHDSLAIFGPVLDKATRESAFVHAIASAGVAFAVTRSCAEGTAAICGCSSRHQGSPGKGWKWGGCSEDIEFGGMVSREFADARENRPDARSAMNRHNNEAGRQAIASHMHLKCKCHGLSGSCEVKTCWWSQPDFRAIGDFLKDKYDSASEMVVEKHRESRGWVETLRPRYTYFKVPTERDLVYYEASPNFCEPNPETGSFGTRDRTCNVSSHGIDGCDLLCCGRGHNARAERRREKCRCVFHWCCYVSCQECTRVYDVHTCK
notes: WNT-3A, human, untagged recombinant protein; source: bought: RnD Systems/Biotechne, purified
B2: untagged human/mouse WNT-5A (ligand, UniProt P41221 62-380, looked up)
chain: IIGAQPLCSQLAGLSQGQKKLCHLYQDHMQYIGEGAKTGIKECQYQFRHRRWNCSTVDNTSVFGRVMQIGSRETAFTYAVSAAGVVNAMSRACREGELSTCGCSRAARPKDLPRDWLWGGCGDNIDYGYRFAKEFVDARERERIHAKGSYESARILMNLHNNEAGRRTVYNLADVACKCHGVSGSCSLKTCWLQLADFRKVGDALKEKYDSAAAMRLNSRGKLVQVNSRFNSPTTQDLVYIDPSPDYCVRNESTGSLGTQGRLCNKTSEGMDGCELMCCGRGYDQFKTVQTERCHCKFHWCCYVKCKKCTEIVDQFVCK
notes: WNT-5A, printed as human/mouse, untagged recombinant protein; human WNT-5A is P41221; source: bought: RnD Systems/Biotechne, purified
B3: untagged human WNT-10B (ligand)
chain: not shown
notes: WNT-10B, human, untagged recombinant protein; source: bought: RnD Systems/Biotechne, purified
B4: untagged human WNT-5B (ligand, UniProt Q9H1J7 18-359, looked up)
chain: QLLTDANSWWSLALNPVQRPEMFIIGAQPVCSQLPGLSPGQRKLCQLYQEHMAYIGEGAKTGIKECQHQFRQRRWNCSTADNASVFGRVMQIGSRETAFTHAVSAAGVVNAISRACREGELSTCGCSRTARPKDLPRDWLWGGCGDNVEYGYRFAKEFVDAREREKNFAKGSEEQGRVLMNLQNNEAGRRAVYKMADVACKCHGVSGSCSLKTCWLQLAEFRKVGDRLKEKYDSAAAMRVTRKGRLELVNSRFTQPTPEDLVYVDPSPDYCLRNESTGSLGTQGRLCNKTSEGMDGCELMCCGRGYNQFKSVQVERCHCKFHWCCFVRCKKCTEIVDQYICK
notes: WNT-5B, human, untagged recombinant protein; source: bought: RnD Systems/Biotechne, purified
B5: untagged human WNT-11 (ligand, UniProt O96014 25-354, looked up)
chain: IKWLALSKTPSALALNQTQHCKQLEGLVSAQVQLCRSNLELMHTVVHAAREVMKACRRAFADMRWNCSSIELAPNYLLDLERGTRESAFVYALSAAAISHAIARACTSGDLPGCSCGPVPGEPPGPGNRWGGCADNLSYGLLMGAKFSDAPMKVKKTGSQANKLMRLHNSEVGRQALRASLEMKCKCHGVSGSCSIRTCWKGLQELQDVAADLKTRYLSATKVVHRPMGTRKHLVPKDLDIRPVKDSELVYLQSSPDFCMKNEKVGSHGTQDRQCNKTSNGSDSCDLMCCGRGYNPYTDRVVERCHCKYHWCCYVTCRRCERTVERYVCK
notes: WNT-11, human, untagged recombinant protein; source: bought: RnD Systems/Biotechne, purified
B6: FZD4-CD86 chimeric protein (HiBiT-tagged) (receptor)
chain: FGDEEERRCDPIRISMCQNLGYNVTKMPNLVGHELQTDAELQLTTFTPLIQYGCSSQLQFFLCSVYVPMCTEKINIPIGPCGGMCLSVKRRCEPVLKEFGFAWPESLNCSKFPPQNDHNHMCMEGPGDEEVPLPHKTPIQPGEECHSVGTNSDQYIWVKRSLNCVLKCGYDAGLYS
B7: FZD8-CD86 chimeric protein (HiBiT-tagged) (receptor)
chain: ASAKELACQEITVPLCKGIGYNYTYMPNQFNHDTQDEAGLEVHQFWPLVEIQCSPDLKFFLCSMYTPICLEDYKKPLPPCRSVCERAKAGCAPLMRQYGFAWPDRMRCDRLPEQGNPDTLCMDYNRTDLTTAAPSPPRRLPPPPPGEQPPSGSGHGRPPGARPPHRGGGRGGGGGDAAAPPARGGGGGGKARPPGGGAAPCEPGCQCRAPMVSVSSERHPLYNRVKTGQIANCALPCHNPFFSQDERA
B8: FZD4-FZD8 chimeric protein (receptor)
chain: FGDEEERRCDPIRISMCQNLGYNVTKMPNLVGHELQTDAELQLTTFTPLIQYGCSSQLQFFLCSVYVPMCTEKINIPIGPCGGMCLSVKRRCEPVLKEFGFAWPESLNCSKFPPQNDHNHMCMEGPGDEEVPLPHKTPIQPGEECHSVGTNSDQYIWVKRSLNCVLKCGYDAGLYSFTVFWIGLWSVLCFVSTFATVSTFLIDMERFKYPERPIIFLSACYLFVSVGYLVRLVAGHEKVACSGGAPGAGGAGGAGGAAAGAGAAGAGAGGPGGRGEYEELGAVEQHVRYETTGPALCTVVFLLVYFFGMASSIWWVILSLTWFLAAGMKWGNEAIAGYSQYFHLAAWLVPSVKSIAVLALSSVDGDPVAGICYVGNQSLDNLRGFVLAPLVIYLFIGTMFLLAGFVSLFRIRSVIKQQDGPTKTHKLEKLMIRLGLFTVLYTVPAAVVVACLFYEQHNRPRWEATHNCPCLRDLQPDQARRPDYAVFMLKYFMCLVVGITSGVWVWSGKTLESWRSLCTRCCWASKGAAVGGGAGATAAGGGGGPGGGGGGGPGGGGGPGGGGGSLYSDVSTGLTWRSGTASSVSYPKQMPLSQV
B9: FZD4-FZD6 chimeric protein (receptor)
chain: FGDEEERRCDPIRISMCQNLGYNVTKMPNLVGHELQTDAELQLTTFTPLIQYGCSSQLQFFLCSVYVPMCTEKINIPIGPCGGMCLSVKRRCEPVLKEFGFAWPESLNCSKFPPQNDHNHMCMEGPGDEEVPLPHKTPIQPGEECHSVGTNSDQYIWVKRSLNCVLKCGYDAGLYSIGTVSIFCLCATLFTFLTFLIDVRRFRYPERPIIYYSVCYSIVSLMYFIGFLLGDSTACNKADEKLELGDTVVLGSQNKACTVLFMLLYFFTMAGTVWWVILTITWFLAAGRKWSCEAIEQKAVWFHAVAWGTPGFLTVMLLAMNKVEGDNISGVCFVGLYDLDASRYFVLLPLCLCVFVGLSLLLAGIISLNHVRQVIQHDGRNQEKLKKFMIRIGVFSGLYLVPLVTLLGCYVYEQVNRITWEITWVSDHCRQYHIPCPYQAKAKARPELALFMIKYLMTLIVGISAVFWVGSKKTCTEWAGFFKRNRKRDPISESRRVLQESCEFFLKHNSKVKHKKKHYKPSSHKLKVISKSMGTSTGATANHGTSAVAITSHDYLGQETLTEIQTSPETSMREVKADGASTPRLREQDCGEPASPAASISRLSGEQVDGKGQAGSVSESARSEGRISPKSDITDTGLAQSNNLQVPSSSEPSSLKGSTSLLVHPVSGVRKEQGGGCHSDT
B10: FZD6-FZD4 chimeric protein (receptor)
chain: HSLFTCEPITVPRCMKMAYNMTFFPNLMGHYDQSIAAVEMEHFLPLANLECSPNIETFLCKAFVPTCIEQIHVVPPCRKLCEKVYSDCKKLIDTFGIRWPEELECDRLQYCDETVPVTFDPHTEFLGPQKKTEQVQRDIGFWCPRHLKTSGGQGYKFLGIDQCAPPCPNMYFKSDELEFAKSFMAVWASLCFISTAFTVLTFLIDSSRFSYPERPIIFLSMCYNIYSIAYIVRLTVGRERISCDFEEAAEPVLIQEGLKNTGCAIIFLLMYFFGMASSIWWVILTLTWFLAAGLKWGHEAIEMHSSYFHIAAWAIPAVKTIVILIMRLVDADELTGLCYVGNQNLDALTGFVVAPLFTYLVIGTLFIAAGLVALFKIRSNLQKDGTKTDKLERLMVKIGVFSVLYTVPATCVIACYFYEISNWALFRYSADDSNMAVEMLKIFMSLLVGITSGMWIWSAKTLHTWQKCSNRLVNSGKVKREKRGNGWVKPGKGSETVV

biological target: T1, HiBiT-tagged human FZD4; experiment: FRET or BRET; NanoBiT/BRET competition binding on live HEK293A cells with HiBiT-FZD4: 30 min preincubation with purified untagged WNT at 37 °C, then eGFP-WNT-3A to 0.4 nM for 240 min, then LgBiT and furimazine; pKi by Cheng-Prusoff; conditions: one partner purified

Binder	0.4 nM eGFP-WNT-3A binding displaced (%)	pKi	ΔBRET
B1	40.8%	7.26	-0.002
B2	78.4%	7.08	-0.004
B3	34.5%	7.87	-0.001
B4	78.3%	6.93	-0.004
B5	58.4%	8.9	-0.001

biological target: T2, eGFP-tagged mouse WNT-3A (mouse, UniProt P27467 19-352); experiment: FRET or BRET; NanoBiT/BRET saturation binding on live HEK293A cells (setup 1): eGFP-WNT-3A conditioned medium 16.7 pM to 16.7 nM, 5% FBS, 10 mM HEPES, 240 min at 37 °C, then LgBiT and furimazine for 10 min; one-site specific model (normalised logarithmic fits for pKd); conditions: partners not purified
T2 construct: WNT-3A, mouse, eGFP-tagged, secreted into conditioned medium; Co-expressed with His-Afamin, which may accompany the WNT in the medium; Two batches (16.7 nM and 16.2 nM); also called eGFP-WNT-3A; eGFP-Wnt-3A; source: HEK293F suspension cells, cotransfected with pCS2+-eGFP-WNT-3A and pCMV-His-Afamin; conditioned medium, concentrated 5-fold and medium-exchanged (not purified)

Binder	Kd
B6	142 nM
B7	22.9 nM
B8	2.9 nM
B9	3.5 nM
B10	5.8 nM
